Reference: PMC2928781

Assays:
Assay in all cases: two-hybrid; L40 strain co-transformed with pGAD424 (prey) and pBTM116 (target) constructs; LACZ reporter read by ONPG assay (Miller units); each mutant against the wild-type MSH4 or MSH5 partner; three independent co-transformants
Msh5 (S. cerevisiae) = Msh5 (S. cerevisiae) (UniProt Q12175)
[1] = biological target: Msh5 S416A (S. cerevisiae) (UniProt Q12175)
[2] = biological target: Msh5 D680A (S. cerevisiae) (UniProt Q12175)
[3] = biological target: Msh5 Y661A (S. cerevisiae) (UniProt Q12175)
[4] = biological target: Msh5 R685W (S. cerevisiae) (UniProt Q12175)
[5] = biological target: Msh5 G648A (S. cerevisiae) (UniProt Q12175)
[6] = biological target: Msh5 V488A (S. cerevisiae) (UniProt Q12175)
[7] = biological target: Msh5 R436A (S. cerevisiae) (UniProt Q12175)
[8] = biological target: Msh5 D539A (S. cerevisiae) (UniProt Q12175)
[9] = biological target: Msh5 D433A (S. cerevisiae) (UniProt Q12175)
[10] = biological target: Msh5 W298A (S. cerevisiae) (UniProt Q12175)
[11] = biological target: Msh5 D532A (S. cerevisiae) (UniProt Q12175)
[12] = biological target: Msh5 D250A (S. cerevisiae) (UniProt Q12175)
[13] = biological target: Msh5 N182A (S. cerevisiae) (UniProt Q12175)
[14] = biological target: Msh5 D527A (S. cerevisiae) (UniProt Q12175)
[15] = biological target: Msh5 E45A (S. cerevisiae) (UniProt Q12175)
[16] = biological target: Msh5 Y480A (S. cerevisiae) (UniProt Q12175)
[17] = biological target: Msh5 D76A (S. cerevisiae) (UniProt Q12175)

Chain of Msh4 (P40965 whole entry): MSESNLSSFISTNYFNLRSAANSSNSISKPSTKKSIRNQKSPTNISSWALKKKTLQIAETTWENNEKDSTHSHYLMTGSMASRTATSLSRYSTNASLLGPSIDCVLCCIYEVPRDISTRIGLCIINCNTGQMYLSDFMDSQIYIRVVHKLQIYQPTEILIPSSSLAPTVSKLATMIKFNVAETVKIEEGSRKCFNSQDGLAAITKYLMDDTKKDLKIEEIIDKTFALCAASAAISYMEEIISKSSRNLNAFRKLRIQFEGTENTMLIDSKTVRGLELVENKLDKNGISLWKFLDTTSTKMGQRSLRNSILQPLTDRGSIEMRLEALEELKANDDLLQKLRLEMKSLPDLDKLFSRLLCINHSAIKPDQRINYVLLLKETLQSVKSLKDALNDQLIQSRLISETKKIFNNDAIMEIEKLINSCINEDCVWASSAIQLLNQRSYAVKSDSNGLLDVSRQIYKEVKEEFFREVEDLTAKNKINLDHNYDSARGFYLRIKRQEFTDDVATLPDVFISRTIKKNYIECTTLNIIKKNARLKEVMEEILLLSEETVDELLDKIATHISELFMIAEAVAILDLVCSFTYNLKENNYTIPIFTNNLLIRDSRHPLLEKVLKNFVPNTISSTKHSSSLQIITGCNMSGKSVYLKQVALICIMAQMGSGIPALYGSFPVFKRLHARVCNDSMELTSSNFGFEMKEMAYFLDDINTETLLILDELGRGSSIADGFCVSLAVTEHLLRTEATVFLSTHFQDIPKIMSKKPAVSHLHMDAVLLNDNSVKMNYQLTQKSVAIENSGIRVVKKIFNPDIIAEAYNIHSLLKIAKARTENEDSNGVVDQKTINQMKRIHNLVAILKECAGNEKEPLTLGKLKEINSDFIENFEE

In the case of “Msh4 R456A (from UniProt P40965 1-878) (natural protein)”, the β-galactosidase activity (two-hybrid) (Msh5 (S. cerevisiae)) is reported as 1.9 Miller units.
Work on “Msh4 L493A (from UniProt P40965 1-878) (natural protein)” yielded a β-galactosidase activity (two-hybrid) (Msh5 (S. cerevisiae)) of 1.6 Miller units.
Work on “Msh4 E276A (from UniProt P40965 1-878) (natural protein)” yielded a β-galactosidase activity (two-hybrid) (Msh5 (S. cerevisiae)) of 70 Miller units.
“Msh4 R676W (from UniProt P40965 1-878) (natural protein)” was tested, and the β-galactosidase activity (two-hybrid) (Msh5 (S. cerevisiae)) was 96 Miller units.
In the case of “Msh4 D139A (from UniProt P40965 1-878) (natural protein)”, the β-galactosidase activity (two-hybrid) (Msh5 (S. cerevisiae)) is reported as 1.5 Miller units.
“Msh4 (from UniProt P40965 1-878) (natural protein)” showed a β-galactosidase activity (two-hybrid) [1] of 3 Miller units, a β-galactosidase activity (two-hybrid) (Msh5 (S. cerevisiae)) of 54 Miller units and a β-galactosidase activity (two-hybrid) [2] of 1.4 Miller units. The β-galactosidase activity (two-hybrid) [3] was 1.2 Miller units, the β-galactosidase activity (two-hybrid) [4] was 46 Miller units and the β-galactosidase activity (two-hybrid) [5] was 45 Miller units. For the same substance, the β-galactosidase activity (two-hybrid) [6] was 1.4 Miller units, the β-galactosidase activity (two-hybrid) [7] was 1.3 Miller units and the β-galactosidase activity (two-hybrid) [8] was 89 Miller units. It also gave a β-galactosidase activity (two-hybrid) [9] of 1.4 Miller units, a β-galactosidase activity (two-hybrid) [10] of 1.4 Miller units and a β-galactosidase activity (two-hybrid) [11] of 3.7 Miller units. For the same substance, the β-galactosidase activity (two-hybrid) [12] was 6.2 Miller units, the β-galactosidase activity (two-hybrid) [13] was 63 Miller units and the β-galactosidase activity (two-hybrid) [14] was 1.9 Miller units. The β-galactosidase activity (two-hybrid) [15] was 62 Miller units, the β-galactosidase activity (two-hybrid) [16] was 2.2 Miller units and the β-galactosidase activity (two-hybrid) [17] was 1.3 Miller units.
“Msh4 F491A (from UniProt P40965 1-878) (natural protein)” was tested, and the β-galactosidase activity (two-hybrid) (Msh5 (S. cerevisiae)) was 2.5 Miller units.
For “Msh4 G639A (from UniProt P40965 1-878) (natural protein)”, the β-galactosidase activity (two-hybrid) (Msh5 (S. cerevisiae)) was 11.6 Miller units.
